Experimental data from patent US20230107890A1 (HOBER BIOTECH, published 2023).
Groups on a side chain read outwards from the residue. No end group written: not given here. *: point of attachment. DOTA = O=C(O)CN1CCN(CC(=O)O)CCN(CC(=O)*)CCN(CC(=O)O)CC1

B1: MGDEAVDANS-ADAPTNeg-(SSSG)3-ABD035-GSSC (designed binder)
chain: MGDEAVDANSLAEAKVLANRELDKYGVADAYKNLINNAKTVEGVKARIDEILAALPSSSGSSSGSSSGLAEAKVLANRELDKYGVSDFYKRLINKAKTVEGVEALKLHILAALPGSSC
B2: MG-DEAVDANS-ABD035-(SSSG)3-ADAPT6-GSSC-HPEM-125I (designed binder)
chain: MGDEAVDANSLAEAKVLANRELDKYGVSDFYKRLINKAKTVEGVEALKLHILAALPSSSGSSSGSSSGLAAAKETALYHLDRLGVADAYKDLIDKAKTVEGVKARYFEILHALPGSSC
modifications: C-terminal cysteine coupled to 125I-labelled ((4-hydroxyphenyl)ethyl)maleimide (HPEM)
B3: MG-DEAVDANS-ABD035-(SSSG)3-ADAPT6-GSSC (designed binder)
chain: B2 chain
notes: also called ABD035-ADAPT6
B4: MG-DEAVDANS-ABD035-(SSSG)3-ADAPT6-GSSC-DOTA-177Lu (designed binder)
chain: B2 chain
modifications: C-terminal cysteine coupled to maleimide-DOTA chelating 177Lu
B5: MG-DEAVDANS-ADAPT6-(SSSG)5-ABD35-GSSC (designed binder)
chain: MGDEAVDANSLAAAKETALYHLDRLGVADAYKDLIDKAKTVEGVKARYFEILHALPSSSGSSSGSSSGSSSGSSSGLAEAKVLANRELDKYGVSDFYKRLINKAKTVEGVEALKLHILAALPGSSC
notes: also called ADAPT6-(SSSG)5-ABD035
B6: MG-DEAVDANS-ADAPT6-GSSC (designed binder)
chain: MGDEAVDANSLAAAKETALYHLDRLGVADAYKDLIDKAKTVEGVKARYFEILHALPGSSC
notes: also called non-fused ADAPT6; unfused control
B7: MG-DEAVDANS-ADAPT6-GSSC-HPEM-125I (designed binder)
chain: B6 chain
modifications: C-terminal cysteine coupled to 125I-labelled ((4-hydroxyphenyl)ethyl)maleimide (HPEM)
notes: Radioiodinated form of the non-fused control
B8: MG-DEAVDANS-ADAPT6-GSSC-DOTA-177Lu (designed binder)
chain: MGDEAVDANSLAAAKETALYHLDRLGVADAYKDLIDKAKTVEGVKARYFEILHALPGSSC([maleimide-DOTA])
modifications: also: 177Lu chelated by DOTA
B9: MG-DEAVDANS-ADAPT6-(SSSG)3-ABD035-GSSC (designed binder)
chain: MGDEAVDANSLAAAKETALYHLDRLGVADAYKDLIDKAKTVEGVKARYFEILHALPSSSGSSSGSSSGLAEAKVLANRELDKYGVSDFYKRLINKAKTVEGVEALKLHILAALPGSSC
B10: MG-DEAVDANS-ADAPT6-(SSSG)3-ABD035-GSSC-HPEM-125I (designed binder)
chain: B9 chain
modifications: C-terminal cysteine coupled to 125I-labelled ((4-hydroxyphenyl)ethyl)maleimide (HPEM)
notes: also called Inventive 2
B11: MG-DEAVDANS-ADAPT6-(SSSG)3-ABD035-GSSC-DOTA-177Lu (designed binder)
chain: B9 chain
modifications: C-terminal cysteine coupled to maleimide-DOTA chelating 177Lu
notes: also called Inventive 1
B12: MG-DEAVDANS-ABD35-(SSSG)5-ADAPT6-GSSC (designed binder)
chain: MGDEAVDANSLAEAKVLANRELDKYGVSDFYKRLINKAKTVEGVEALKLHILAALPSSSGSSSGSSSGSSSGSSSGLAAAKETALYHLDRLGVADAYKDLIDKAKTVEGVKARYFEILHALPGSSC
notes: also called ABD035-(SSSG)5-ADAPT6

Columns and labels:
[1] = molecular target: T1, Human Epidermal growth factor receptor 2 (HER2), immobilised on a CM5 chip (human, UniProt P04626 23-652, limits assumed); experiment: SPR, successive injections without regeneration, on HER2; concentrations not given
[2] = molecular target: T2, HER2 on living HER2-expressing cells (SKOV-3, BT-474) (human, UniProt P04626 23-1255); experiment: LigandTracer, living SKOV-3 cells; KD2 (weaker of two interactions)
T2 construct: whole, on cells; also called HER2 receptors in cells; HER2 on living cells
Experimental: (§1) Cell-lines were purchased from American Type Culture Collection (ATCC, Manassas, Va.). […] The affinity of radiolabeled conjugates binding to living HER2-expressing SKOV-3 cells was determined using LigandTracer (Ridgeview Instruments AB) by an established method as described previously (Tolmachev 2014).

[3] = molecular target: T2, HER2 on living HER2-expressing cells …; experiment: LigandTracer, living SKOV-3 cells; KD1 (stronger of two interactions)
Experimental: as §1

[4] = molecular target: T3, Murine Serum Albumin (MSA) (murine, UniProt P07724 25-608); experiment: SPR (Biacore T200), MSA immobilised on CM5 chip
Experimental: (§2) Target binding analysis was performed on a Biacore T200 system (GE Healthcare, Stockholm, Sweden) by injecting analytes over a CM5 chip immobilized with Murine Serum Albumin (MSA), Human Serum Albumin (HSA) and Human Epidermal growth factor receptor 2 (HER2) to a response level of […] each. Experimental parameters have been described previously (Garousi 2019).

[5] = molecular target: T1, Human Epidermal growth factor receptor …; experiment: SPR (Biacore T200), HER2 immobilised on CM5 chip
Experimental: as §2

[6] = molecular target: T4, Human Serum Albumin (HSA) (human, UniProt P02768 25-609); experiment: SPR (Biacore T200), HSA immobilised on CM5 chip
T4 sequence (P02768 25-609 limits assumed): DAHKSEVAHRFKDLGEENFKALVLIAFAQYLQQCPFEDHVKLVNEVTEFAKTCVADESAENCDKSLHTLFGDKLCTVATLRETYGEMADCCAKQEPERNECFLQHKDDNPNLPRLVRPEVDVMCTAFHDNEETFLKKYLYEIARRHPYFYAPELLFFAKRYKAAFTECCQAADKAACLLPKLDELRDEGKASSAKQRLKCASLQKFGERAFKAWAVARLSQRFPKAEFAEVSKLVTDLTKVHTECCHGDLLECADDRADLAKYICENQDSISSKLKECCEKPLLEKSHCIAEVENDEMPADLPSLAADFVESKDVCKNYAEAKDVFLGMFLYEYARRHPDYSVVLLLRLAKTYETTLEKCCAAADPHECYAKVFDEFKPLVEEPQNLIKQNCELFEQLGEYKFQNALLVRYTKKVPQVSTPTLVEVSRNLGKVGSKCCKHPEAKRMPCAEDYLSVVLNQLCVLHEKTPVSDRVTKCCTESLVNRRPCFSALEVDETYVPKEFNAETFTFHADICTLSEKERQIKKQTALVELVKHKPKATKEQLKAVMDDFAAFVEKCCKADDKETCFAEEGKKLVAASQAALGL
Experimental: as §2

[7] = molecular target: T3, Murine Serum Albumin (MSA); experiment: SPR, MSA immobilised on CM5 chip, analyte injected at 3.125-50 nM
Experimental: (§3) In the graphs of FIG. 4, the X axis represents time [s] and the Y axis represents Response Unit [RU].
as §2

[8] = molecular target: T1, Human Epidermal growth factor receptor …; experiment: SPR, HER2 immobilised on CM5 chip, analyte 3.125-50 nM with 10x excess HSA
Experimental: as §3, §2

[9] = molecular target: T4, Human Serum Albumin (HSA); experiment: SPR, HSA immobilised on CM5 chip, analyte injected at 3.125-50 nM
Experimental: as §3, §2

Binder | Kd [2] | Kd [3] | Kd [5] | Kd [6] | other results
B1 | – | – | – | – | binding result [1]: no binding
B2 | 28 nM | 0.15 nM | – | – | –
B3 | – | – | 5.2 nM | 0.0521 nM | Kd [4]: 1.83 nM
B4 | 38 nM | 0.432 nM | – | – | –
B5 | – | – | 4.45 nM | 0.0538 nM | Kd [4]: 1.8 nM
B6 | – | – | – | – | binding result [7]: no binding (tested: 50 nM); binding result [8]: binds; binding result [9]: no binding (tested: 50 nM)
B7 | 27 nM | 0.41 nM | – | – | –
B8 | 41 nM | 0.337 nM | – | – | –
B9 | – | – | 4.67 nM | 0.0498 nM | Kd [4]: 1.76 nM
B10 | 36 nM | 0.6 nM | – | – | –
B11 | 33 nM | 0.485 nM | – | – | –
B12 | – | – | 4.32 nM | 0.052 nM | –
